The record followed here is patent EP4810611A2.

In test [1] the target is TRBV9+TRAV26 antigen. As to the kind of experiment: BLI (OctetRed 96), antigen on AR2G sensors, antibody 126-2 nM, 1:1 model; run 1.
The target in test [2] is TRBV9+TRAV38 antigen. Described as above.
Test [3] deals with TRBV9+TRAV26 antigen. Nature of the test: BLI (OctetRed 96), antigen on AR2G sensors, antibody 126-2 nM, 1:1 model; run 2.
The target of test [4] is TRBV9+TRAV38 antigen. The test is described as above.
Test [5] deals with TRBV9+TRAV26 antigen. Nature of the test: BLI (OctetRed 96), antigen on AR2G sensors, antibody 126-2 nM, 1:1 model; run 3.
The target of test [6] is TRBV9+TRAV38 antigen. The description is as above.
In test [7] the target is human T cell receptor with a beta-chain of the TRBV9 family, on T lymphocytes of the mononuclear fraction of human blood (human). Nature of the test: flow cytometry, FITC-labelled antibody on human blood mononuclear cells, 5 and 0.5 ng/µl.
human T cell receptor with a beta-chain of the TRBV9 family, on T lymphocytes of the mononuclear fraction of human blood (human), sequence (A0A0B4J1U6 22-114): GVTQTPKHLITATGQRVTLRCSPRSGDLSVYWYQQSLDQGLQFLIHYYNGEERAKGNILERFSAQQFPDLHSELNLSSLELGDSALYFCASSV

B1: anti-TRBV9-1 monoclonal antibody (antibody, human IgG1, kappa, V domains shown)
VH: QIQLVQSGPELREPGESVKLSCKASGYTFTDYLVHWVKQAPGKGLKWMGWINTYTGTPTYADDFEGRFVFSLEASASTANLQISNLKNEDTATYFCARSWRRGLRGLGFDYWGQGVFVTVSS
VL: DVQMTQSPYNLAASPGESVSINCKASKSINKYLAWYQQKPGKPNKLLIYDGSTLQSGIPSRFSGSGSGTDFTLTIRGLEPEDFGLYYCQQHNEYPPTFGAGTKLELKR
On to B1, for which the Kd in test [1] is 0.22 nM; in test [2], 0.414 nM; in test [3], 0.278 nM; in test [4], 0.365 nM; in test [5], 0.204 nM; in test [6], 0.529 nM. Also, the koff in test [1] was 0.000113 s⁻¹; in test [2], 0.000183 s⁻¹; in test [3], 0.000183 s⁻¹; in test [4], 0.000205 s⁻¹; in test [5], 0.000114 s⁻¹; in test [6] it was 0.000196 s⁻¹. Moreover, the on-rate constant (kon) in test [1] was 515000 M⁻¹ s⁻¹; in test [2] it was 441000 M⁻¹ s⁻¹; in test [3] it was 658000 M⁻¹ s⁻¹; in test [4], 562000 M⁻¹ s⁻¹; in test [5], 559000 M⁻¹ s⁻¹; in test [6], 371000 M⁻¹ s⁻¹.

B2: anti-TRBV9-3 monoclonal antibody (antibody, human IgG1, kappa, V domains shown)
VH: QIQLVQSGPELREPGESVKLSCKASGYTFTDYLVHWVKQAPGKGLKWMGWINTYTGTPTYADDFEGRFVFSLEASASTANLQISNLKNEDTATYFCARSWRRGIRGLGFDYWGQGVFVTVSS
VL: DVQMTQSPYNLAASPGESVSINCKASKSINKYLAWYQQKPGKPNKLLIYDGSTLQSGIPSRFSGSGSGTDFTLTIRGLEPEDFGLYYCQQHNEYPPTFGAGTKLELKR
In the case of B2, the Kd in test [1] was determined as 0.319 nM; in test [2], 0.311 nM; in test [3] it was 0.582 nM; in test [4], 0.4 nM. The dissociation rate constant (koff) in test [1] was determined as 9.16e-05 s⁻¹; in test [2] it was 9.61e-05 s⁻¹; in test [3] it was 9.8e-05 s⁻¹; in test [4], 9.16e-05 s⁻¹. For the same molecule, the kon in test [1] worked out at 287000 M⁻¹ s⁻¹; in test [2], 309000 M⁻¹ s⁻¹; in test [3] it was 168000 M⁻¹ s⁻¹; in test [4], 229000 M⁻¹ s⁻¹.

B3: anti-TRBV9-4 monoclonal antibody (antibody, human IgG1, kappa, V domains shown)
VH: QIQLVQSGPELREPGESVKLSCKASGYTFTDYLVHWVKQAPGKGLKWMGWINTYTGTPTYADDFEGRFVFSLEASASTANLQISNLKNEDTATYFCARSWRRGIRGIGFDYWGQGVFVTVSS
VL: DVQMTQSPYNLAASPGESVSINCKASKSINKYLAWYQQKPGKPNKLLIYDGSTLQSGIPSRFSGSGSGTDFTLTIRGLEPEDFGLYYCQQHNEYPPTFGAGTKLELKR
As for B3, the dissociation constant Kd in test [1], in test [2], in test [3] and in test [4] was less than 0.001 nM throughout. Moreover, the off-rate constant (koff) in test [1], in test [2], in test [3] and in test [4] was less than 1e-07 s⁻¹ in each case. The kon came out at 865000 M⁻¹ s⁻¹ in test [1], 713000 M⁻¹ s⁻¹ in test [2], 579000 M⁻¹ s⁻¹ in test [3] and 476000 M⁻¹ s⁻¹ in test [4].

B4: anti-TRBV9-2 monoclonal antibody (antibody, human IgG1, kappa, V domains shown)
VH: QIQLVQSGPELREPGESVKLSCKASGYTFTDYLVHWVKQAPGKGLKWMGWINTYTGTPTYADDFEGRFVFSLEASASTANLQISNLKNEDTATYFCARSWRRGLRGIGFDYWGQGVFVTVSS
VL: DVQMTQSPYNLAASPGESVSINCKASKSINKYLAWYQQKPGKPNKLLIYDGSTLQSGIPSRFSGSGSGTDFTLTIRGLEPEDFGLYYCQQHNEYPPTFGAGTKLELKR
For B4, the Kd is 0.0135 nM in test [1], less than 0.001 nM in test [2], less than 0.001 nM in test [3] and less than 0.001 nM in test [4]. For the same molecule, the dissociation rate constant (koff) was 6.02e-06 s⁻¹ in test [1], less than 1e-07 s⁻¹ in test [2], less than 1e-07 s⁻¹ in test [3] and less than 1e-07 s⁻¹ in test [4]. The association rate constant (kon) in test [1] is 447000 M⁻¹ s⁻¹; in test [2], 397000 M⁻¹ s⁻¹; in test [3], 381000 M⁻¹ s⁻¹; in test [4] it was 289000 M⁻¹ s⁻¹. Besides, the staining, share of the CD3-positive fraction in test [7] is 2.9%.
